Test results as given in patent US11685901B2, “Compositions and methods for organoid generation and disease modeling” (Salk Institute for Biological Studies, priority 2016, dated 2023).

Legend:
INS-1 cells = assay: Proinsulin-NanoLuc Gaussia luciferase insulin secretion assay in INS-1 cells; format: cell-based, rat; settings: INS-1 stably expressing Proinsulin-NanoLuc; G20 mM + 100 nM Ex4; 20 mM KCl
Method: INS-1 cells were infected with the virus by spinfection (800 g, 1 hour at 37 degrees Celsius) and then changed to fresh INS-1 growth media. Seventy-two (72) hours after transfection, INS-1 cells were treated with 5 μg/ml Blasticidin (Invitrogen) for 7 days to select for Proinsulin-NanoLuc expressing cells. For insulin secretion assay, the cells (5×10^4-1×10^5 cells/well in 96 well) were pre-cultured in 3 mM glucose KRBB (100 μl/well). The cells were then incubated in KRBB (100 μl/well) with 3 mM and then sequentially incubated with 20 mM glucose with or without 100 nM Exendine-4 or 3 mM glucose with 20 mM KCl (100 μl/well). To determine Gaussia Luciferase activity as indicator of insulin secretion levels, 10 μl of samples are used for Luciferase assay using Pierce Gaussia Luciferase Flash Assay Kit (Prod #16159, Thermo Scientific).

[1] = system: human islet-like organoids; assay: Gaussia luciferase insulin secretion assay in human islet-like organoids; format: cell-based; settings: 10 to 100 per assay
Method: Mouse islets, human islets and human islets like organoids were plated in their respective growth media with 10 μg/ml Polybrene® polymer (Santacruz). Viruses were then added. After overnight culture, cells were placed in fresh growth media. […] Then, insulin secretion assays were performed. […] The cells were then incubated in KRBB (100 μl/well) with 3 mM for 30 min and then sequentially incubated with 20 mM glucose with or without 100 nM Exendin-4 or 3 mM glucose with 20 mM KCl (100 μl/well). To determine Gaussia Luciferase activity as indicator of insulin secretion levels, 10 μl of samples are used for Luciferase assay using Pierce Gaussia Luciferase Flash Assay Kit (Prod #16159, Thermo Scientific).

[2] = system: human islet-like organoids; assay: hIAPP toxicity, propidium iodide staining of islet-like organoids; format: cell-based
Source text: FIG. 7 is a schematic showing modeling of human Type 2 diabetes in a dish. Generation of functional human organs such as a liver, pancreas, and islets provides new therapeutic strategies in drug-screening and modeling of human type 2 diabetes.
Generation of functional human organs according to methods described herein provides new strategies for drug-screening and disease modeling. Specifically, functional organoids can be used as models of type 2 diabetes for drug screening (FIG. 7).

[3] = system: hiPSC-derived islet organoids; assay: Gene expression (qPCR) in hiPSC-derived islet organoids treated with WNT proteins; format: cell-based, human; settings: for ERRγ-mitochondrial metabolic pathway: FIGS. 12A-12H; for Esrrg gene expression / expression of mitochondrial genes involved in oxidative phosphorylation (Cox7a2, Ndufa1, Ndufa7), lactate dehydrogenase (Ldha) and Fltp: organoids generated in the absence of hADSC or HUVECs, increasing doses rhWNT4 0-200 ng/ml, rhWNT5a 0-400 ng/ml
Method: Human PSCs, including iPSC or ESC, were initially cultured in matrigel-coated plates (2 dimensional (2D) cultures. Cells were then treated with Accutase (Innovative Cell Technologies, Inc., San Diego, Calif.) to generate a single cell suspension, washed with PBS and centrifuged at 1000-1300 rpm for 5 minutes to pellet cells. Cells were resuspended with 3DKG Stem TeSR™ Base Medium (Stemcell Technologies, Cambridge, Mass.) with 10 μM Y-27632 (a RHO/ROCK pathway inhibitor compound) and cultured for an additional for 5 to 7 days until PSC sphere growth reached 50-100 μm diameter. Media was then replaced with differentiation media supplemented with 0.015% Kelcogel and 0.3% Methylcellulose. The culture medium was changed to differentiation medium ([…]) containing 100 ng/ml human Activin (R&D Systems), 25 ng/ml recombinant human Wnt3a (R&D Systems) or 3 μM CHIR99021, a glycogen synthase kinase GSK-3 inhibitor (Axon Medchem, Reston, Va.; or Selleckchem) for 1 day and then to differentiation medium (S1) containing 100 ng/ml human Activin for another 2 days (Stage 1, Pancreatic Endoderm). Subsequently, the medium was replaced with differentiation medium (S2) containing 50 ng/ml FGF7 (R&D Systems) for 2 days, and then with differentiation medium (S3) containing 50 ng/ml FGF7, 0.25 μM SANT-1 (Sigma), 1 μM Retinoic Acid (Sigma), 100 nM LDN193189 (an ALK2 and ALK3 inhibitor, Sigma) and 100 nM α-Amyloid Precursor Protein Modulator TPB for 3 days. Subsequently, this medium was replaced with differentiation medium (S4) containing 0.25 μM SANT-1, 50 nM Retinoic Acid, 10 μM Alk5 inhibitor II, 1 μM T3 for 3 days. Subsequently, the medium was replaced with differentiation medium (S5) containing 100 nM LDN193189, 100 nM Gamma Secretase inhibitor XX GSiXX (Millipore) 10 μM Alk5 inhibitor II, 1 μM T3 for 7 days. Subsequently, the medium was replaced with differentiation medium (S5) containing 10 uM Trolox (Calbiochem), 2 μM R428 (Selleckchem), 1 mM N-acetyl cysteine, 10 μM Alk5 inhibitor II, 1 μM T3 for an additional 7 to 20 days. After confirmation of the insulin gene expression by either reporter expression or qPCR (typically on day 20-30), the medium was changed to differentiation medium (S5) containing 10 μM Trolox (Calbiochem), 2 μM R428 (Selleckchem), 1 mM N-acetyl cysteine, 10 μM Alk5 inhibitor II, 1 μM T3 and 100 ng/ml recombinant human (rh)Wnt4 (R&D Systems), 400 ng/ml rhWnt5a, or 50% Wnt5a conditioned medium for 1-20 days. Wnt5a conditioned medium was prepared by culturing an L-Wnt5a cell line (ATCC, CRL-2814) in DMEM with 10% FBS, 1% Penicillin-streptomycin for 4 days after cells had reached 70-100% confluence in T175-T225 Frasko cell culture flasks.
Total RNA was extracted using TRIzol reagent (Invitrogen) and RNeasy KIT (Qiagen). Reverse transcription was performed with a SuperScript III First-Strand Synthesis System kit (Invitrogen) or PrimeScript RT reagent kit (TAKARA). Real time quantitative RT-PCR (qPCR) was performed using SYBR Green (Bio-Rad).
(FIG. 12A). […] In addition, mitochondrial genes involved in oxidative phosphorylation (Cox7a2, Ndufa1, Ndufa7), lactate dehydrogenase (Ldha) and Fltp (a Wnt/planar cell polarity (PCP) effector and reporter gene) were induced in hiPSC-derived islet organoids that were generated in the absence of supporting hADSC or HUVECs, in response to increasing doses of rhWNT4 (0, 10, 25, 50, 100, 200 ng/ml) and rhWNT5a (0, 25, 50, 100, 200, 400 ng/ml), (FIG. 12C). Mitochondrial (Mitotracker; Mito-Red) and insulin (Insulin-GFP) levels were increased in hiPSC-derived islet organoids (day 27) after 8 days treatment with PBS or WNT4 (100 ng/ml). (FIG. 12D). Human iPSC-derived islet organoids (day 27) were generated after 8 days treatment with PBS or WNT4 (100 ng/ml). (FIG. 12E). […]

[4] = system: hiPSC-derived islet organoids; assay: Fluorescence imaging and FACS analysis of hiPSC-derived islet organoids (Mitotracker, Insulin-GFP); format: cell-based, human; settings: organoids day 27, 8 days treatment; for Insulin production (FACS): rhWNT4 100 ng/ml, rhWNT5a 400 ng/ml, conditioned media 50%, compared with PBS and control conditioned media
Method: FIGS. 12A-12H show a set of bar graphs and images illustrating the role of WNT proteins in the metabolic maturation of iPSC-derived islet organoids. […] FIG. 12B is a bar graph showing the induction of Esrrg gene expression in hiPSC-derived islet organoids, generated in the absence of supporting hADSC or HUVECs, in response to increasing doses of WNT4 (0, 10, 25, 50, 100, 200 ng/ml) and WNT5a (0, 25, 50, 100, 200, 400 ng/ml). FIG. 12C is a bar graph showing the induction of mitochondrial genes involved in oxidative phosphorylation (Cox7a2, Ndufa1, Ndufa7), lactate dehydrogenase (Ldha) and Fltp (a Wnt/planar cell polarity (PCP) effector and reporter gene) in hiPSC-derived islet organoids, generated in the absence of supporting hADSC or HUVECs, in response to increasing doses of WNT4 (0, 10, 25, 50, 100, 200 ng/ml) and WNT5a (0, 25, 50, 100, 200, 400 ng/ml). […] FIGS. 12F, 12G, and 12H show a set of bar graphs illustrating the results of FACS analyses of hiPSC-derived islet organoids (day 27) after 8 days treatment with PBS, WNT4 (100 ng/ml), WNT5a (400 ng/ml), control fibroblast conditioned media (50%), or WNT5a secreting fibroblast conditioned media (50%). The WNT proteins used were recombinant human (rh) proteins.
Human PSCs, including iPSC or ESC, were initially cultured in matrigel-coated plates (2 dimensional (2D) cultures. Cells were then treated with Accutase (Innovative Cell Technologies, Inc., San Diego, Calif.) to generate a single cell suspension, washed with PBS and centrifuged at 1000-1300 rpm for 5 minutes to pellet cells. Cells were resuspended with 3DKG Stem TeSR™ Base Medium (Stemcell Technologies, Cambridge, Mass.) with 10 μM Y-27632 (a RHO/ROCK pathway inhibitor compound) and cultured for an additional for 5 to 7 days until PSC sphere growth reached 50-100 μm diameter. Media was then replaced with differentiation media supplemented with 0.015% Kelcogel and 0.3% Methylcellulose. […]

[5] = system: hiPSC-derived islet organoids; assay: Insulin secretion assay (human c-peptide ELISA) of hiPSC-derived islet organoids; format: cell-based; settings: organoids day 22, 100 ng/ml for 12 days, G3 mM, G20 mM, KCL20 mM, without hADSC and HUVECs
Method: Insulin release from intact islets was monitored using batch incubation methods (Yoshihara et al., 2010, Nat. Commun. 1:127). Briefly, overnight-cultured isolated pancreatic islets (RPMI-1640 supplemented with 10% (v/v) fetal bovine serum and 1% (v/v) Antibiotic-Antimycotic (Gibco)) were pre-cultured at 37° C. for 30 min (Krebs-Ringer bicarbonate buffer (KRBB) containing 129.4 mM NaCl, 3.7 mM KCl, 2.7 mM CaCl2, 1.3 mM KH2PO4, 1.3 mM MgSO4, 24.8 mM NaHCO3 (equilibrated with 5% CO2, 95% O2, pH7.4), 10 mM HEPES and 0.2% (v/v) BSA (fraction V, Sigma) (KRBH) with 3 mM glucose). Pancreatic islets were then incubated in KRBH buffer (500 μl/10 islets) with 3 mM or 20 mM glucose to determine insulin secretion levels. After 30 min, islets were pelleted by centrifugation and insulin levels determined by ELISA (Rat/mouse Insulin ELISA KIT (Millipore) and Human Insulin ELISA KIT (Millipore) for mouse and human islets, respectively). For human iPSC derived cells, the cells (1×10^6 cells/well in 24 well) were pre-cultured in 3 mM glucose KRBH buffer (500 μl/well). The cells were then incubated in KRBB (200 μl/well) with 3 mM or 20 mM glucose to determine c-peptide secretion levels as indicator of insulin secretion levels. After 30 min, the cells were pelleted by centrifugation and c-peptide levels were determined by human c-peptide ELISA KIT (Millipore).

Molecule | Luciferase secretion (insulin secretion) (INS-1 cells) | stimulated insulin secretion of pooled organoids (secreted luciferase) [1] | ERRγ-mitochondrial metabolic pathway [3] | Esrrg gene expression [3] | expression of mitochondrial genes involved in oxidative phosphorylation (Cox7a2, Ndufa1, Ndufa7), lactate dehydrogenase (Ldha) and Fltp [3] | Insulin production (FACS) [4] | other results
[Cl-].[K+] [potassium chloride] | increased | robust |  |  |  |  | 
Exendin-4 | increased |  |  |  |  |  | 
GLP-1: incretin |  | enhanced GSIS |  |  |  |  | 
hIAPP: human amyloid polypeptide, an inducer of β cell loss in type 2 diabetic patients (KCNTATCATQRLANFLVHSSNNFGAILSSTNVGSNTY; Islet amyloid polypeptide; UniProt P10997 34-70, looked up) |  |  |  |  |  |  | G0/G1 arrest ([2]; 24 hours): dose-dependently induced G0/G1 arrest; apoptosis (propidium iodide staining in G0/G1 stage cells) ([2]; increasing concentrations): induces apoptosis
rhWNT4: recombinant human (rh)Wnt4 protein (R&D Systems) (protein, UniProt P56705 23-351, looked up) Protein Wnt-4: SNWLYLAKLSSVGSISEEETCEKLKGLIQRQVQMCKRNLEVMDSVRRGAQLAIEECQYQFRNRRWNCSTLDSLPVFGKVVTQGTREAAFVYAISSAGVAFAVTRACSSGELEKCGCDRTVHGVSPQGFQWSGCSDNIAYGVAFSQSFVDVRERSKGASSSRALMNLHNNEAGRKAILTHMRVECKCHGVSGSCEVKTCWRAVPPFRQVGHALKEKFDGATEVEPRRVGSSRALVPRNAQFKPHTDEDLVYLEPSPDFCEQDMRSGVLGTRGRTCNKTSKAIDGCELLCCGRGFHTAQVELAERCSCKFHWCCFVKCRQCQRLVELHTCR |  |  | activate | induced | induced | found | Mitochondrial (Mitotracker; Mito-Red) and insulin (Insulin-GFP) levels ([4]; 100 ng/ml): increased; functional maturation based on secretion of human c-peptide ([5]; listed as Wnt4): sufficient to induce in vitro functional maturation; functional maturation based on secretion of human c-peptide ([5]; listed as rhWnt4): functional maturation
rhWNT5a: recombinant human Wnt5a protein (protein, UniProt P41221 62-380, looked up) Protein Wnt-5a: IIGAQPLCSQLAGLSQGQKKLCHLYQDHMQYIGEGAKTGIKECQYQFRHRRWNCSTVDNTSVFGRVMQIGSRETAFTYAVSAAGVVNAMSRACREGELSTCGCSRAARPKDLPRDWLWGGCGDNIDYGYRFAKEFVDARERERIHAKGSYESARILMNLHNNEAGRRTVYNLADVACKCHGVSGSCSLKTCWLQLADFRKVGDALKEKYDSAAAMRLNSRGKLVQVNSRFNSPTTQDLVYIDPSPDYCVRNESTGSLGTQGRLCNKTSEGMDGCELMCCGRGYDQFKTVQTERCHCKFHWCCYVKCKKCTEIVDQFVCK |  |  | activate | induced | induced | found | 
